Experimental data from PMC2854097 (Molecular Biology of the Cell, 2010).

Target: T1, GST-p23/Tmp21 (aa 1-219), from pEBG-p23/Tmp21 (full-length) (UniProt P49755 32-219)
T1 sequence (looked up): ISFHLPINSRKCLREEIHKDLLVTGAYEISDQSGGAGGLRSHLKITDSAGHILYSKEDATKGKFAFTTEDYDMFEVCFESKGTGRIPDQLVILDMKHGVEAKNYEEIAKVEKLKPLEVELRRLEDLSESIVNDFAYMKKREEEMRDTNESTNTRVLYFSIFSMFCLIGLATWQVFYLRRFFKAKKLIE
Experiment: pull-down

B1: HA-β2-chimaerin (full-length) (natural protein, UniProt P52757-1 1-468, looked up)
chain: MAASSNSSLSGSSVSSDAEEYQPPIWKSYLYQLQQEAPRPKRIICPREVENRPKYYGREFHGIISREQADELLGGVEGAYILRESQRQPGCYTLALRFGNQTLNYRLFHDGKHFVGEKRFESIHDLVTDGLITLYIETKAAEYISKMTTNPIYEHIGYATLLREKVSRRLSRSKNEPRKTNVTHEEHTAVEKISSLVRRAALTHNDNHFNYEKTHNFKVHTFRGPHWCEYCANFMWGLIAQGVRCSDCGLNVHKQCSKHVPNDCQPDLKRIKKVYCCDLTTLVKAHNTQRPMVVDICIREIEARGLKSEGLYRVSGFTEHIEDVKMAFDRDGEKADISANVYPDINIITGALKLYFRDLPIPVITYDTYSKFIDAAKISNADERLEAVHEVLMLLPPAHYETLRYLMIHLKKVTMNEKDNFMNAENLGIVFGPTLMRPPEDSTLTTLHDMRYQKLIVQILIENEDVLF
fold increase in association with PMA against vehicle (densitometry): ~7 fold
